The labels stand for the following.
B1: Ras GTPase-activating protein 1, residues 281 to 341; numbered along this chain, P20936 (parent)
chain: RRRVRAILPYTKVPDTDEISFLKGDMFIVHNELEDGWMWVTNLRTDEQGLIVEDLVEEVGR

± gives the uncertainty stated by the source.

Our source for the abundance fitness values is the Human Domainome abundance scans (Beltran et al. 2025).

This data set covers variants of B1. Put plainly: abundance fitness (aPCA) (normalised: wild type 0, dead -1); higher = more abundant; growth selection in yeast, the domain comes from the species named. The conditions noted are these: Homo sapiens.
Regarding RRRVRAILPYTKVPDTDEISFLKGDMFIVHNELEDGWMWVTNLRTDEQGLIVESLVEEVGR, the abundance fitness worked out at 0.058 ± 0.029. In the case of RRRVRAILPYTKVPDTDEISFLKGDMFIVHNELEQGWMWVTNLRTDEQGLIVEDLVEEVGR, the abundance fitness was determined as 0.007 ± 0.07.

On to RRRVRAILPYTKVPDTDEISFLKGDMFIVHNELECGWMWVTNLRTDEQGLIVEDLVEEVGR, for which the abundance fitness is -0.163 ± 0.032. Consider RRRVRAILPYTKVPDTDEISFLWGDMFIVHNELEDGWMWVTNLRTDEQGLIVEDLVEEVGR, for which the abundance fitness is -0.482 ± 0.037. Turning to RRRVRAILPYTKVPDTDQISFLKGDMFIVHNELEDGWMWVTNLRTDEQGLIVEDLVEEVGR, the abundance fitness stood at 0.047 ± 0.089. RRRVRAILPYTKVPDTDEISFLKGDMFIVHNELEDGWMWVTNLRTDEQGLIAEDLVEEVGR: the abundance fitness worked out at 0.072 ± 0.029. Regarding RRRVRAILPYTKVPDTDEISFLKGDMFIVHNELEDGWMWVTNLRTDAQGLIVEDLVEEVGR, the abundance fitness is -0.254 ± 0.031. As for RRRVRAILPYTKVPDTDEISFLKGDMFIWHNELEDGWMWVTNLRTDEQGLIVEDLVEEVGR, the abundance fitness was -0.951 ± 0.13. On to RRRVRAILPYTKVPDTDEISFLKGDMFIVHNELEDGWMWVTNLRTDEQGLIVEDLVEEVMR, for which the abundance fitness is -0.289 ± 0.12. RRRVRAILPYTKVPDTDEISFLKGDMFIVHNELEDGWMWVTNLRTDEQGLIVEDLVEEVSR: the abundance fitness is -0.068 ± 0.05. The same measure for RRRVRAILPYTKVPDTDEISFLKGDMFIVHNELEDYWMWVTNLRTDEQGLIVEDLVEEVGR: -0.874 ± 0.048; for RRRVRAILPYTKVPRTDEISFLKGDMFIVHNELEDGWMWVTNLRTDEQGLIVEDLVEEVGR: -0.172 ± 0.03; for RRRVRAILPYTKVPHTDEISFLKGDMFIVHNELEDGWMWVTNLRTDEQGLIVEDLVEEVGR: -0.04 ± 0.034.

As for RRRVRAILPYTKVPYTDEISFLKGDMFIVHNELEDGWMWVTNLRTDEQGLIVEDLVEEVGR, the abundance fitness was -0.168 ± 0.028. RRRVRAILPYTKVPKTDEISFLKGDMFIVHNELEDGWMWVTNLRTDEQGLIVEDLVEEVGR: the abundance fitness was -0.169 ± 0.079. As to RRRVRAILPYDKVPDTDEISFLKGDMFIVHNELEDGWMWVTNLRTDEQGLIVEDLVEEVGR, the abundance fitness is 0.016 ± 0.034. With RRRVRAILPYPKVPDTDEISFLKGDMFIVHNELEDGWMWVTNLRTDEQGLIVEDLVEEVGR the figure was -0.696 ± 0.051.

As for RRRVRAILPYTKVPDTDEISFLKGDMFIVHNELEDGWMWVTNLRTDEQNLIVEDLVEEVGR, the abundance fitness was -0.836 ± 0.043. Regarding RRRVRAILPYTKVPDTDEISFLKFDMFIVHNELEDGWMWVTNLRTDEQGLIVEDLVEEVGR, the abundance fitness is -0.584 ± 0.035. With RRRVRAILPHTKVPDTDEISFLKGDMFIVHNELEDGWMWVTNLRTDEQGLIVEDLVEEVGR the figure was 0.084 ± 0.045; with RRRVRAILPYTKSPDTDEISFLKGDMFIVHNELEDGWMWVTNLRTDEQGLIVEDLVEEVGR, -0.015 ± 0.025; with RRRVRAILPYTKVPDTDEISFLKGDMFIVHNELEDGWMWVTNLRTDEQGLIVEDLVPEVGR, -0.848 ± 0.099.

As for RRRVRAILPYTKVPDTDEISFLKGDMFIVHNELEDGWMWVTNLRTDEQGLIVEDLVMEVGR, the abundance fitness is -0.346 ± 0.081.

For the variant RRRVRWILPYTKVPDTDEISFLKGDMFIVHNELEDGWMWVTNLRTDEQGLIVEDLVEEVGR, the abundance fitness was -0.953 ± 0.051. In the case of RRRVRAILPYTKVPDTDEISFLKGDMFIVHNELEDGWMWVTQLRTDEQGLIVEDLVEEVGR, the abundance fitness is -0.737 ± 0.1. As to RRRVRAILPYTKVPDTDEISFLKGDMFIVHNELEDGWMWVTKLRTDEQGLIVEDLVEEVGR, the abundance fitness was -0.61 ± 0.083. Consider RRRVRAILPYTKVPDTDEISVLKGDMFIVHNELEDGWMWVTNLRTDEQGLIVEDLVEEVGR, for which the abundance fitness is -0.478 ± 0.021. Take RRRVRAILPYTKVPDTDEISFLKGDMFIVHNELEDGWMWVTNPRTDEQGLIVEDLVEEVGR: the abundance fitness was -0.784 ± 0.079. For RRRVRAILPYTKVPDTDEISFLKGDMFIVHNELEDGWMWVTNDRTDEQGLIVEDLVEEVGR, the abundance fitness was -0.422 ± 0.04.

Regarding RRRVRAILAYTKVPDTDEISFLKGDMFIVHNELEDGWMWVTNLRTDEQGLIVEDLVEEVGR, the abundance fitness is -0.026 ± 0.039. Consider RRRVRAILPYTKVPDTDEISFLKGDMFIVHNELEDGWMWVTNLRTDEQGLIVEDLVEEVGT, for which the abundance fitness was 0.092 ± 0.037. RRRVRAILPYTKVPDTDEISFLKGDMFIVHNELNDGWMWVTNLRTDEQGLIVEDLVEEVGR: the abundance fitness was -0.004 ± 0.032.

RRRVRAILPYTKVPDTDEISFLKGDMFIVHNELIDGWMWVTNLRTDEQGLIVEDLVEEVGR: the abundance fitness is -0.258 ± 0.037. In the case of RRRVRAILPYTKVPDTDEISFLKGDMFIVHAELEDGWMWVTNLRTDEQGLIVEDLVEEVGR, the abundance fitness is -0.036 ± 0.032. In the case of RRRVRAILPYTKVPDTDEISFLKGDMFIVHGELEDGWMWVTNLRTDEQGLIVEDLVEEVGR, the abundance fitness is -0.072 ± 0.028.

As for RRRVRAILPYTKVPDTDEISFLKGDMFIVHNELEDGWMWVTNLRTDEQGLIVEDLNEEVGR, the abundance fitness was -0.874 ± 0.056. With RRRVRAILPYTKVPDTDEISFLKGDMFIVHNELEDGWMWVTNLRTDEQGLIVEDLWEEVGR, the abundance fitness was -0.844 ± 0.086. On to RRRVRAILPYTKVPDTDEISFLKGDMFIVHNELEDGWMWVTNLRTDEQGLIVEDLPEEVGR, for which the abundance fitness is -0.778 ± 0.054. Regarding RRRVRAILPYTKVPDTDEISFLKGDMFIVHNELEDGWMWVTNLRTDEQGLIVEDLVEEFGR, the abundance fitness is -0.106 ± 0.025.

With RRRVRAILPYTKVPDTDEISFLKGDMFIVHNELEDGWMWVTNLRTDEQGLIVEDLVEERGR, the abundance fitness is -0.372 ± 0.033. Regarding RRRVRAILPYTKVPDTDEISFLKGDMFIVHNELEDGWMWVTNLRTDEQGLIVEDLVEEDGR, the abundance fitness was -0.067 ± 0.033. For RRRVRAILPYTKVPDTDEISFLKGDMFIVHNELEDGWMWVTNLRTDEQGLIVEDLVEDVGR, the abundance fitness was -0.026 ± 0.037. RRRVRAILPYTKVPDTDEISFLKGDMFIVHNELEDGWMWVTNLRTDEQGLIVEDLVESVGR: the abundance fitness is -0.064 ± 0.026.
